This experiment deals with Notch (Notch pathway receptors) in MC3T3-E1 murine osteoblasts (mouse). The experiment is described as follows: cell-based or functional assay.

Take “human JAGGED1 overexpressed in SCP28 breast cancer cells (JAG1 OE tumor cells) (from UniProt P78504 34-1218) (ligand)”: the Notch activity (firefly luciferase Notch reporter in MC3T3-E1 osteoblasts cocultured with JAG1 OE tumor cells) was 6 fold.

The values are drawn from patent US20130309246A1.
